Experimental data as given in patent publication US20200306373A1 (Hoffmann-La Roche, published 2020).

T1: murine ICOS (murine, UniProt Q9WVS0 21-200)
T1 construct: in the splenocyte assays the endogenous protein on murine T cells; also called mICOS
T1 sequence: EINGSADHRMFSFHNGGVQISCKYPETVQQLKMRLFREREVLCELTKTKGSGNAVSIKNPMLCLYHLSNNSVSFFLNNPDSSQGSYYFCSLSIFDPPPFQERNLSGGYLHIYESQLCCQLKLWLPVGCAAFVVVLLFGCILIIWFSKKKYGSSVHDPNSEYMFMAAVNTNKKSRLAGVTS


Columns and labels:
[1] = biological target: T1, murine ICOS; assay: binding to CHO K1 cells expressing murine ICOS
[2] = biological target: T2, dimeric murine ICOS antigen Fc(kih) fusion molecule (murine, biotinylated at the C-terminal Avi tag (BirA co-expression)); assay: SPR, ProteOn XPR36, 25 C, one-shot kinetics, Fab dilution series over murine ICOS protein, 1:1 Langmuir
T2 construct: also called murine ICOS proteins; biotinylated ICOS-Fc fusion protein
Method: For one-shot kinetics measurements, dilution series of purified monoclonal antibody Fab fragments were injected simultaneously along separate channels 1-5. Buffer (PBST) was injected along the sixth channel to provide an “in-line” blank for referencing. Association rate constants (kₒₙ) and dissociation rate constants (koff) were calculated using a simple one-to-one Langmuir binding model in ProteOn Manager v3.1 software by simultaneously fitting the association and dissociation sensorgrams. The equilibrium dissociation constant (KD) was calculated as the ratio koff/kₒₙ (Table 18).

[3] = biological target: T1, murine ICOS; assay: flow cytometry on CHO-K1 transfectants expressing murine ICOS
Method: (§1) The staining was fixed for 20 min at 4° C. in the dark, using 75 μl of 1% PFA in FACS buffer per well. Fluorescence was analyzed by FACS using a FACS Fortessa (Software FACS Diva). Binding curves were obtained using GraphPadPrism6 and are shown in FIGS. 6A-6C and 7A-7B, respectively.

[4] = biological target: T3, murine FAP (mFAP) (murine, UniProt P97321 1-761); assay: flow cytometry on 3T3-mFAP cells
T3 construct: Expressed on 3T3-mFAP / NIH/3T3-moFAP cl.34 cells; also called mouse FAP; moFAP
Method: as §1

[5] = biological target: T3, murine FAP (mFAP); assay: flow cytometry on 3T3-mFAP cells stably overexpressing murine FAP, median fluorescence intensity
Method: as §1

T3 sequence (P97321 whole entry): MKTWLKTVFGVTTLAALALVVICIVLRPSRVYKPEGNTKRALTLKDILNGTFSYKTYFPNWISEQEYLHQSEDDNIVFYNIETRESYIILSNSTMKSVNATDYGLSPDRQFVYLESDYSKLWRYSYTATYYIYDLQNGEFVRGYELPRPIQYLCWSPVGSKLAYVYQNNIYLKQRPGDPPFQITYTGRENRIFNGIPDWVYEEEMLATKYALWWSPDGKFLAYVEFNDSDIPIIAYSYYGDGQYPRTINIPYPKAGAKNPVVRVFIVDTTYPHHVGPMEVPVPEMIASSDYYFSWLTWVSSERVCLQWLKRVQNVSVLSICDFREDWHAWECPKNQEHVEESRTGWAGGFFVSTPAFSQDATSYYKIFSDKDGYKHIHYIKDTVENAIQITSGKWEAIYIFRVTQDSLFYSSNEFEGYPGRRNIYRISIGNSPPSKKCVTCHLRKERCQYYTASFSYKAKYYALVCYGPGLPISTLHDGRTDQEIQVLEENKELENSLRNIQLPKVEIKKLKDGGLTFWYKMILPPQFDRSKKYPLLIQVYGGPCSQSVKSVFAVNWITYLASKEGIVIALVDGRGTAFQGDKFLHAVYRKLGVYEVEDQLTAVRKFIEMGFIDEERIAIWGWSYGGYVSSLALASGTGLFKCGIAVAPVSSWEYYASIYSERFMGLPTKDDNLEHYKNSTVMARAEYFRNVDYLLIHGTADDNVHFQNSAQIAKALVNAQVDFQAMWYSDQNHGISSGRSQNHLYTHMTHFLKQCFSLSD

Binder | binding result [1] | Kd [2] [nM] | EC50 [3] [nM] | EC50 [4] [nM] | EC50 (read off the curve) [5] [nM]
Fab fragment 16E09 (Fab, V domains shown, Phage-derived Fab expressed in E. coli TG1 and purified on His GraviTrap columns; also called 16E09 anti-ICOS antibody as Fab fragment; purified Fab fragment 16E09) VH: EVQLVQSGAEVKKPGESLKISCKGSGYSFTSYWIGWVRQMPGKGLEWMGIIYPGDSDTRYSPSFQGQVTISADKSISTAYLQWSSLKASDTAMYYCARSSGPYGLYLDYWGQGTLVTVSS VL: not shown | binds | 293 | – | – | –
FAP-targeted mICOSL, mIgG1 DAPG, bivalent murine ICOSL (Gly47-Lys279), monovalent FAP (28H1) c-terminal fused of the heavy chain C region (Fc fusion, also called FAP-mICOS-L; FAP-mICOSL) chain 1: ETEVGAMVGSNVVLSCIDPHRRHFNLSGLYVYWQIENPEVSVTYYLPYKSPGINVDSSYKNRGHLSLDSMKQGNFSLYLKNVTPQDTQEFTCRVFMNTATELVKILEEVVRLRVAANFSTPVISTSDSSNPGQERTYTCMSKNGYPEPNLYWINTTDNSLIDTALQNNTVYLNKLGLYDVISTLRLPWTSRGDVLCCVENVALHQNITSISQAESFTGNNTKNPQETHNNELKGSPGSSSSSGSADGCKPCICTVPEVSSVFIFPPKPKDVLTITLTPKVTCVVVAISKDDPEVQFSWFVDDVEVHTAQTKPREEQINSTFRSVSELPIMHQDWLNGKEFKCRVNSAAFGAPIEKTISKTKGRPKAPQVYTIPPPKKQMAKDKVSLTCMITNFFPEDITVEWQWNGQPAENYKNTQPIMKTDGSYFVYSKLNVQKSNWEAGNTFTCSVLHEGLHNHHTEKSLSHSPGGGGGSGGGGSGGGGSGGGGSEVQLLESGGGLVQPGGSLRLSCAASGFTFSSHAMSWVRQAPGKGLEWVSAIWASGEQYYADSVKGRFTISRDNSKNTLYLQMNSLRAEDTAVYYCAKGWLGNFDYWGQGTLVTVSS chain 2: ETEVGAMVGSNVVLSCIDPHRRHFNLSGLYVYWQIENPEVSVTYYLPYKSPGINVDSSYKNRGHLSLDSMKQGNFSLYLKNVTPQDTQEFTCRVFMNTATELVKILEEVVRLRVAANFSTPVISTSDSSNPGQERTYTCMSKNGYPEPNLYWINTTDNSLIDTALQNNTVYLNKLGLYDVISTLRLPWTSRGDVLCCVENVALHQNITSISQAESFTGNNTKNPQETHNNELKGSPGSSSSSGSAGSPGSSSSSGSADGCKPCICTVPEVSSVFIFPPKPKDVLTITLTPKVTCVVVAISKDDPEVQFSWFVDDVEVHTAQTKPREEQINSTFRSVSELPIMHQDWLNGKEFKCRVNSAAFGAPIEKTISKTKGRPKAPQVYTIPPPKEQMAKDKVSLTCMITNFFPEDITVEWQWNGQPAENYDNTQPIMDTDGSYFVYSDLNVQKSNWEAGNTFTCSVLHEGLHNHHTEKSLSHSPGGGGGSGGGGSGGGGSGGGGSEIVLTQSPGTLSLSPGERATLSCRASQSVSRSYLAWYQQKPGQAPRLLIIGASTRATGIPDRFSGSGSGTDFTLTISRLEPEDFAVYYCQQGQVIPPTFGQGTKVEIK | – | – | 28.1 | 71.8 | ~30
